The data set can be described thus: soluble on expression in E. coli; label from the status in PepcDB or PDB records.
On to “MIFKKEPKRYTVEDTIPYLRLLKSGICQLDEKHFSKSIAFQDINYQLALDEDRDLIFNQFANFLNSFDPSISIEFSYVNQLGRNEEMKSAIQIPDKKDGFDDIRFEFREMLKSQIVKGNNGLKKSKYVTFTVEADNLEQATSKLERLEIDILSNLKSMGVRAESLNGEERLKILHDVLNPNKTFEFSYKDLKKRESTKTYIVPDEFNFTPSRYFKFGKFIGATSHFQILASELSDRMLSEFLDIDDNINISFHIRAIDQSEAIKMVKRKNTDIDKMKIEENKKAVRSGYDMDILPSDLITYGEDVKSLLKDLQTRDERMFVVSIVFMNFARTVQKLDNTIAQISSIANKHNCKLKRLDHSQEQGLVSMLPLGVNKIEIDRGLTSSSTAVFMPFTTEELFINSSNSLYYGLNALSHNLIMADRKKLKNPNGLILGTPGSGKSFSAKREMANAILVTDDDVIICDPEGEYGNLVRQFKGEVIKVSSKSKDYLNPLDINMNYGDGDAPLKDKANFIMSMLELVVGGSGLTAEEKSVIDRCLPKIYEKYFEHPTPDNMPILQDLYDMLKGQEEKVGKKLATEMEIYVSGSLNVFNHRSNVDLNKKLLCFDIKELGSQLKKIGMLVIQDQVWNKVSQNRGNKATRYYIDEFHLLLKDEQTASYSVEIWKRFRKWGGIPTGITQNVKDLLMSKEIENIFDNTDFVLMLNQASGDREILARKLKISLPQLRYVTNSNEGEGLLFFGNTIVPFLDKFPKDTILYQKMTTKPEEVRLEHHHHHH”, for which the “soluble on expression in E. coli” value was “soluble”.
With “MAQEFVNCKIQPGKVVVFIKPTCPYCRRAQEILSQLPIKQGLLEFVDITATNHTNEIQDYLQQLTGARTVPRVFIGKDCIGGCSDLVSLQQSGELLTRLKQIGALQ”, the “soluble on expression in E. coli” value is recorded as “soluble”.
Turning to “MSLDLMTKLKIYNGEEIVEKASIKKIEREELEEECRQKEGMTGVSTRFIIKAINNAICESNCSCINPIDVINSLITAVKEKDLCEEVEDKYISFLEDVVRKEYNKILYKEITKFFIESFNSQGEALFNNYLDHAEAYVNKVYLKDNITGENLDPDEEFMREIEEEIGVTENSSKGFRKDVVAYILYLIRKGEEINCNCYKPLKEAIERKLISSSREISRIINPSKIRNKAQDEKYKFIVEKLKNNGYCDTCAFYTLRYAANNFWRDEGHHHHHH”, the “soluble on expression in E. coli” value is “not soluble”.
Regarding “GMASVLSAATATDQGPVRENNQDACLADGILYAVADGFGARGHHASATALKTLSAGFAAAPDRDGLLEAVQQANLRVFELLGDEPTVSGTTLTAVAVFEPGQGGPLVVNIGDSPLYRIRDGHMEQLTDDHSVAGELVRMGEITRHEARWHPQRHLLTRALGIGPHIGPDVFGIDCGPGDRLLISSDGLFAAADEALIVDAATSPDPQVAVRRLVEVANDAGGSDNTTVVVIDLG”, the “soluble on expression in E. coli” value was “soluble”.
The result for “MRMKKLTTLISAALLSTSVSFVAQAQDTVAIVLSTLNNPFFVTMKDGAEAKAKELGYNLIVLDSQNDPSKELSNVEDLTVRGVKAILINPTDSDAVSNAIRIANRSKIPVLTLDRGASRGEVVSHIASDNVVGGEMAGHFIEAKIGSDAKVIQLEGIAGTSAARERGEGFMNAVKGSKMQLLASQPADFDRTKGLNVMENLLAANPDVQAVFAQNDEMALGALRAIQASGKSVMIVGFDGTDDGIAAVERGQLAATVAQQPDMIGAIGIETADKMLKGEKVEAYIPVALKVIAK” reads “not soluble”; that for “MEEAKNPWLTGNLVEEANSQGIIQNRSIFNLFANTNIYIFFRHWTTIYERLLEIKQMNERVTKEINTRSTVTFAKDLDLLSSQLSEMGLDFVGEDAYKQVLRLSRRLINGDLEHQWFEESLRQAYNNKAFKLYTIDKVTQSLVKHAHTLMTDA”, “not soluble”; that for “MGSDKIHHHHHHMLKVRHLEIFRAVVKAGSVSAAARLLYVSQPAVTKTLRMLEEEIGLTLFLRVKGRLVCTPEAESILPEIERLFGSVQSIAETAREIRQGQRGSIRVSTVSMLATTIVARAVGEFRKTHPYVEFDVRALPTRHVVEYVNNNQADFGILDVAAPSGTLEVEEFCSADLRCVMRAAHPLASRKTITPRLLDNEALATFGEDTLTGWRLREAFRAQGRPFTSVFVSNSTPVLCALVREADAVALVDPFALMSRSFPDLVSRRFSPSVPVQPRFLFAPGRPRSVIVDQFVSQLRKTAGEMAMG”, “not soluble”.
For “MGSDKIHHHHHHMNWESTPVLMLTPFHHMQRGNTLTTLRLQTALRQRGFTVDLLSLEEKGWRDSLREYLINGKYSLVHGFNARYFGGVLTEFPELRNLPLILTTTGSDLNYDLKNSGRDLVLAAFAAAEKIIVFHDYFQKLIGDAYPEYCSKLSTIPQGVWLEESPPIKREMIGLAADNIVFALPSGLRPVKDIELAIDGLQRVYKDFPELRLLIIGPVIDRDYGQKIKQRVSELNWVFYLGEVLHSDMGNYLSLADVILNTSQAEGQPQGLLEGMSQNKPAILTAVPGNLDIIEEGRQGYYVRNQEELAVAARKMLSSAESRQRMGWEAGKLVKEKFSLAREIQSYAELYRQVLSP”, the “soluble on expression in E. coli” value was “not soluble”.
“MAHHHHHHMGAEHSTGMTKVLMPQFSTKRQTGPFLSPVERVTASGQSVVIECGDGVSRVDDGTAVVELFALDSKATEEDAMVEAFGEFAITKDDLIGRTRSSLKRGRVEEDEDLPCYFLAPRRRSCSVGGHNSADADSVLASPSRWGAVETDADGAMWRLLQEYDELLCVEAIGDATEDLYCYPDHRKDDEFDSNAEDFSGNDYPDDADERSGESAERAEEEASGFSTERRGGRVASHSTYGMFCEEGYSERSLSSVWNSDG”: the “soluble on expression in E. coli” value is on record as “soluble”.
In the case of “MLERTQVFVDTSYLLASFYNSWEIGARAQLEIDLPEVVATLGNMIHNQLGQPVHRQFWYDGIPESGPHRYQRALRTCDGVQLRAGQLIEWGERRTQKAVDTRLVADMVLAGVRREFTDIVLVSGDADMIPGVQEAVNAGVRVHLYGFGWDSMSSALRHACDSTTILDPREDFSDCMQLEILEGPLPPVVRNPDEEGEEGEFPAAAAEATAAAAEAAADTTVTTDATDNEATPPVPTPEQVAEKSQREAPAAPIPCPQRPGEPALSEEDCMAEVPAKMPKPVAPKPGAHLPAETPAPAPTATPAPTPSSRTVRVTSTVEESLEVTVSNSAEPNVEAEEADTPATPRPAPNPSMMAPRRKLRSRYVPLPNEVWASAGYQTPFDVGQQYALWWFDNAATPEQRDSAHLLSGGGLPPEIDRPLLQFACETLHEYTLTEAQRVGLRDGFHSGIRGVLINNQNS”, the “soluble on expression in E. coli” value is given as “not soluble”.
On to “MQIVQIEQAPKDYISDIKIIPSKSLLLITSWDGSLTVYKFDIQAKNVDLLQSLRYKHPLLCCNFIDNTDLQIYVGTVQGEILKVDLIGSPSFQALTNNEANLGICRICKYGDDKLIAASWDGLIEVIDPRNYGDGVIAVKNLNSNNTKVKNKIFTMDTNSSRLIVGMNNSQVQWFRLPLCEDDNGTIEESGLKYQIRDVALLPKEQEGYACSSIDGRVAVEFFDDQGDDYNSSKRFAFRCHRLNLKDTNLAYPVNSIEFSPRHKFLYTAGSDGIISCWNLQTRKKIKNFAKFNEDSVVKIACSDNILCLATSDDTFKTNAAIDQTIELNASSIYIIFDYENLEHHHHHH”, for which the “soluble on expression in E. coli” value is “soluble”.
The value for “MGHHHHHHSHMAAVDIRDNLLGISWVDSSWIPILNSGSVLDYFSERSNPFYDRTCNNEVVKMQRLTLEHLNQMVGIEYILLHAQEPILFIIRKQQRQSPAQVIPLADYYIIAGVIYQAPDLGSVINSRVLTAVHGIQSAFDEAMSYCRYHPSKGYWWHFKDHEEQDKVRPKAKRKEEPSSIFQRQRVDALLLDLRQKFPPKFVQLKPGEKPVPVDQTKKEAEPIPETVKPEEKETTKNVQQTVSAKGPPEKRMRLQ” was “soluble”; that for “MPKFVVIELNDDAATIDLLSYCVKKNFERVSLLTRLEDHPYLRDDQDVVQDDTQSQGTDGMLLQLNDEERQRLMKMISTPGPQTLSMERIQMAPGQGQHILQQHQIPSTSSYTNNSFIYIKSDPQYKDEPQQQSNQFDATVNSVAHGQAGLSTLEMFACNGSPNGGDVLRRKTPSRKAEDSIKATCKVCGHDVMYSPQRTWNLMRHVWIMHQSSKPNQCSICGYSHIKPYVRKHIESQHKHDSNATIIDLKSPELEAEWSQLLDQCFGVTYRKWKHHKEDTQHTGGLLFDDDELRG” was “soluble”.
The result for “MSLDLHTHTIYSDGIGSVIDNVNMAEIRGLRLLGISDHIHFFTPSKFLKYVNEVRSIGREAEIPVLVGIEANITENGPDVTEDFAKHLDYVIASVHDWFGEGEVYRYIERIKLALMDENVTIIGHFGNVFPWIGYPTEEQIKEVLDVAEEYGKAFEISSRYRVPDLEFVKMCIKRGIKLVFASDAHRPEDVGRVDWSIKVFEKAGGKKEDLLFSEEGHHHHHH” reads “soluble”.
As for “MSLGLAIIHSRASIGVQAPPVTVEVHISNGMPGFTLVGLPETTVKESRDRVRSAIINSRFEFPAKRITVNLAPADLPKEGGRFDLPIALGILAASDQIARNKLESYEFIGELALSGEIRGVKGVLPAALAANQVERCLVVPHSNGDQAALVGVERHKSAQSLLEVCADLCGQQTLSLFQSSPSVQQVSQTRDLQDIIGQQQGKRALEIAAAGNHNLLFLGPPGTGKTMLASRLCDLLPEMSDEEAMETASIASLTQQEINQHNWKLRPFRAPHHSSSMAALVGGGTIPRPGEISLAHNGLLFLDEMPEFERKVLDSLREPLESGEIVISRAQGKTRFPARFQLVGALNPSPTGYYEGSQARANPQSILRYLSRLSGPLLDRFDMSIEIPALPKGTLANGGDRGESTAAVRQRVWVARERMLARSGKVNALLQSREIEQYCPLLKADAEFLESALHRLGLSIRAYHRIIKVARTIADLQGEAQIARPHLAEALGYRAMDRLLKQLSAQNEGHHHHHH”, the “soluble on expression in E. coli” value is “soluble”.
The result for “MVLTGVTSKAIRKGDAEPPLSKGSFRVYNMRFCPWAERAMLYVAAKGIEAEVVNLNVTDKLEWYWTKHYQGKAPAVEHNGKVVIESGFIPEYLDDAFPETRILPTDPYEKVQQKLLADRLTAVAHAVPLLFAVMRDRTLKDEKQRKVFEVLKQAENLLANDFYAGSQPGYPDYLSFPFFEKIWWSASLDGVVDLPTIEFPGEEEYPKLTKWFQKMISSDVVQSVTQSLEHGAAFMNAYATHQELNYDLGL” reads “not soluble”.
The result for “MKIFSRLGHVLLICSSLIIAIPAHSADSSTTTKAGVKKTVKKQELSANSALVIDLKTNEIIYSNNPDAVKPIASVTKLMTAIVTLDAKLPMDAKLPITIKDAKEMKGVHSRVKIGSEISRKDMLLLTLMSSENRAAASLAHHYPGGYKAFIKAMNAKAKALGMKNTRFVEPTGLSAKNVSTARDLVVLLKASKKYPLLGKLSATDKKTVTFSKPRYTLDFRNTNRLVHNDNWKIDLTKTGFTNAAGHCLVMRTQMGRRQVAFVVLDTKGKLSPVGDANRLRTWIETGKVTPLSSEAKQYKKQRSQEQIAKISDYKS” reads “not soluble”.
The value for “MAMGQLQHGIDDENATKQTQKYRDAEQSKKTAYDQAVAAAKAILNKQTGSNSDKAAVDRALQQVTSTKDALNGDAKLAEAKAAARQNLGTLNHITNAQRTALEGQINQATTVDGVNTVKTNANTLDGAMNSLQGAINDKDATLRNQNYLDADESKRNAYTQAVTAAEGILNKQTGGNTSKADVDNALNAVTRAKAALNGAENLRNAKTSATNTINGLPNLTQLQKDNLKHQVEQAQNVVGVNGVKDKGNLEHHHHHH” was “soluble”.
“MKRAVITGLGIVSSIGNNQQEVLASLQEGRSGITFAQEFKDAGMRSHVWGDVKLQSEPKDLIDRKVLRFMSDASIYAYLAMQEAIADSGLSDSQVSNFRSGLVVGSGGGSPRNQVAGSDAMRTPRGLKGVGPYMVTKAMASGVSACLATPFKIKGVNYSISSACATSAHCIGHALELIQLGKQDIVFAGGGEELCWEMACEFDAMGALSTKYNDTPAKASRTYDQDRDGFVIAGGGGMVVVEELEHALARGAHIYAEIVGYGATSDGADMVAPSGEGAVRCMQMAMAGVDTPIDYMNVHGTSTPVGDVKELGAIREVFGNNTPAISSTKAMTGHSLGAAGVHEAIFSLLMVEHGFIAPSINIDNLDEQAQGMNIITETTQRELTTVMSNSFGFGGTNATLVMRKYQK”: the “soluble on expression in E. coli” value is “not soluble”.
